Reference: PMC6389498

Molecular target: PrfA WT (Listeria monocytogenes, UniProt P22262 1-237)
Test: BLI; free L-Leu, PrfA:ligand 1:100, no inhibition
Conditions: protein: recombinant; tags: His-tag (pET28a); chain copies: 2; blunt

PrfA WT, sequence (P22262 whole entry): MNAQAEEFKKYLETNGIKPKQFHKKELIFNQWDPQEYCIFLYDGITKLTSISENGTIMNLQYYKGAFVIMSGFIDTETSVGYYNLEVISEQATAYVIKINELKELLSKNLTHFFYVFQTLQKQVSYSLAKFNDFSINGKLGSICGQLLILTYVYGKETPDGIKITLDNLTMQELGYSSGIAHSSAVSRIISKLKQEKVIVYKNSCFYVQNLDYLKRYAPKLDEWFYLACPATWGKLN

B1: PplcA/Phly PrfA box (Phlybox) (dsDNA)
DNA 1: TGTCCCTTTATCGTCGTTAACAAATGTTAATGCCTCGACA
DNA 2: TGTCGAGGCATTAACATTTGTTAACGACGATAAAGGGACA
B1: binds.
